The labels stand for the following.
B1: HPV16 E6 52 … (peptide)
peptide: FAFRDLCIV
modifications: not checked
B2: HPV16 E7 peptide … (position 75, 9 amino acids) (peptide)
peptide: DIRTLEDLL
modifications: not checked
B3: HPV18 E6 peptide … (position 111) (peptide)
peptide: PLNPAEKLRHL
modifications: not checked
B4: HPV16 E6 34 … (peptide)
peptide: ILECVYCKQQL
modifications: not checked
B5: HPV18 E1 peptide … (position 508, 10 amino acids) (peptide)
peptide: FVNSTSHFWL
modifications: not checked
B6: HPV18 E6 peptide … (position 97) (peptide)
peptide: GLYNLLIRCL
modifications: not checked
B7: HPV18 E6 peptide … (position 43) (peptide)
peptide: EVFEFAFKDL
modifications: not checked
B8: HPV18 E6 peptide … (position 47) (peptide)
peptide: FAFKDLFVV
modifications: not checked
B9: HPV18 E6 peptide … (position 54) (peptide)
peptide: VVYRDSIPHA
modifications: not checked
B10: HPV18 E6 32 CVYCKTVL (peptide)
peptide: CVYCKTVL
modifications: not checked
B11: HPV18 E1 peptide … (position 452, 10 amino acids) (peptide)
peptide: FLRYQQIEFI
modifications: not checked
B12: HPV16 E7 peptide … (position 85, 9 amino acids) (peptide)
peptide: GTLGIVCPI
modifications: not checked
B13: HPV18 E1 339 peptide … (SEQ ID NO: 3614) (peptide)
peptide: VMGDTPEWI
modifications: not checked
B14: HPV18 E7 peptide DLLCHEQL (position 24) (peptide)
peptide: DLLCHEQL
modifications: not checked
B15: HPV18 E6 29 … (peptide)
peptide: EITCVYCKTV
modifications: not checked
B16: HPV18 E1 peptide … (position 265, 10 amino acids) (peptide)
peptide: FILYAHIQCL
modifications: not checked
B17: HPV16 E6 peptide … (position 21, 10 amino acids) (peptide)
peptide: QLCTELQTTI
modifications: not checked
B18: HPV18 E1 peptide … (position 463, 9 amino acids) (peptide)
peptide: FLGALKSFL
modifications: not checked
B19: HPV18 E1 546 peptide … (peptide)
peptide: ALDGNPISI
modifications: not checked
B20: HPV16 E6 peptide … (position 94, 10 amino acids) (peptide)
peptide: TLEQQYNKPL
modifications: not checked
B21: HPV18 E1 325 peptide … (peptide)
peptide: ALYWYRTGI
modifications: not checked
B22: HPV18 E6 32 … (peptide)
peptide: CVYCKTVLEL
modifications: not checked
B23: HPV16 E6 peptide … (position 21, 9 amino acids) (peptide)
peptide: QLCTELQTT
modifications: not checked
B24: HPV18 E6 peptide … (position 40) (peptide)
peptide: ELTEVFEFA
modifications: not checked
B25: HPV18 E6 peptide … (position 13) (peptide)
peptide: KLPDLCTEL
modifications: not checked
B26: HPV18 E6 29 … (peptide)
peptide: EITCVYCKT
modifications: not checked
B27: HPV16 E1 277 … (peptide)
peptide: LLVRYKCGK
modifications: not checked
B28: HPV16 E1 403 … (peptide)
peptide: KDCATMCRH
modifications: not checked
B29: HPV16 E1 454 … (peptide)
peptide: MSFLTALKR
modifications: not checked
B30: HPV16 E1 216 … (peptide)
peptide: GVSFSELVR
modifications: not checked
B31: HPV16 E1 403 … (peptide)
peptide: KDCATMCRHY
modifications: not checked
B32: HPV16 E1 222 … (peptide)
peptide: LVRPFKSNK
modifications: not checked
B33: HPV16 E1 305 … (peptide)
peptide: MMIEPPKLR
modifications: not checked
B34: … (HPV16 E6, position 75, 10 amino acids) (peptide)
peptide: KFYSKISEYR
modifications: not checked
B35: HPV18 E1 428 … (peptide)
peptide: NMSQWIRFR
modifications: not checked
B36: HPV18 E6 101 … (peptide)
peptide: LLIRCLRCQK
modifications: not checked
B37: HPV18 E1 312 … (peptide)
peptide: MLIQPPKLR
modifications: not checked
B38: HPV18 E6 83 … (peptide)
peptide: DSVYGDTLEK
modifications: not checked
B39: … (HPV16 E6, position 33, 9 amino acids) (peptide)
peptide: IILECVYCK
modifications: not checked
B40: … (HPV16 E6, position 106, 10 amino acids) (peptide)
peptide: LLIRCINCQK
modifications: not checked
B41: HPV18 E6 102 … (peptide)
peptide: LIRCLRCQK
modifications: not checked
B42: … (HPV16 E6, position 107, 9 amino acids) (peptide)
peptide: LIRCINCQK
modifications: not checked
B43: … (HPV16 E6, position 93, 9 amino acids) (peptide)
peptide: TTLEQQYNK
modifications: not checked
B44: … (HPV16 E6, position 92, 10 amino acids) (peptide)
peptide: GTTLEQQYNK
modifications: not checked
B45: HPV18 E1 426 … (peptide)
peptide: QMNMSQWIR
modifications: not checked
B46: … (HPV16 E6, position 31, 9 amino acids) (peptide)
peptide: HDIILECVY
modifications: not checked
B47: HPV18 E1 460-468 peptide … (peptide)
peptide: FITFLGALK
modifications: not checked
B48: HPV18 E1 412-420 peptide … (peptide)
peptide: CATMCKHYR
modifications: not checked
B49: HPV18 E1 393 … (peptide)
peptide: NSNAAAFLK
modifications: not checked
B50: HPV18 E1 peptide … (position 322, 9 amino acids) (peptide)
peptide: SVAALYWYR
modifications: not checked
B51: HPV18 E6 68 … (peptide)
peptide: CIDFYSRIR
modifications: not checked
B52: HPV18 E6 43 EVFEFAFK (peptide)
peptide: EVFEFAFK
modifications: not checked
B53: HPV18 E6 27 … (peptide)
peptide: DIEITCVYCK
modifications: not checked
B54: HPV18 E1 229 … (peptide)
peptide: LVRNFKSDK
modifications: not checked
B55: HPV18 E1 284-292 peptide … (peptide)
peptide: ALLRYKCGK
modifications: not checked
B56: … (HPV16 E6, position 75, 9 amino acids) (peptide)
peptide: KFYSKISEY
modifications: not checked

These results are taken from US7026443.

The target in one test is HLA-A*0201 (human).
Details: not given
Regarding B1, the binding affinity ratio (IC50 of standard peptide / IC50 of test peptide) amounted to 0.051.
B2: the relative binding ratio (IC50 of standard peptide / IC50 of test peptide) was determined as 0.0003.
On the same count and under the same terms, the result for B3 reads 0.0001.
Consider B4, for which the binding affinity ratio (IC50 of standard peptide / IC50 of test peptide) is 0.0004.
In the case of B5, the binding affinity ratio (IC50 of the standard peptide / IC50 of the test peptide) was found to be 0.062.
Turning to B6, the relative binding ratio (IC50 of standard peptide / IC50 of test peptide) amounted to 0.0036.
Turning to B7, the relative binding ratio (IC50 of standard peptide / IC50 of test peptide) was 0.0009.
With B8, the relative binding ratio (IC50 of standard peptide / IC50 of test peptide) turned out to be 0.085.
On the same count and under the same terms, with B9 the figure was 0.0003.
With B10, the binding affinity ratio (IC50 of the standard peptide / IC50 of the test peptide) was 0.0002.
Consider B11, for which the binding affinity ratio (IC50 of the standard peptide / IC50 of the test peptide) is 0.0025.
For B12, the relative binding ratio (IC50 of standard peptide / IC50 of test peptide) amounted to 0.021.
Still for that read-out and setting: the result for B13 reads 0.007.
Turning to B14, the relative binding ratio (IC50 of standard peptide / IC50 of test peptide) came out at 0.0001.
Take B15: the binding affinity ratio (IC50 of the standard peptide / IC50 of the test peptide) amounted to 0.0002.
As to B16, the binding affinity ratio (IC50 of the standard peptide / IC50 of the test peptide) stood at 0.032.
For the molecule B17, the relative binding ratio (IC50 of standard peptide / IC50 of test peptide) turned out to be 0.0012.
Turning to B18, the binding affinity ratio (IC50 of the standard peptide / IC50 of the test peptide) came out at 0.045.
On to B19, for which the relative binding ratio (IC50 of standard peptide / IC50 of test peptide) (ratio to standard peptide) was determined as 0.021.
On to B20, for which the relative binding ratio (IC50 of standard peptide / IC50 of test peptide) was 0.0001.
For B21, the relative binding ratio (IC50 of standard peptide / IC50 of test peptide) (ratio to standard peptide) came out at 0.0032.
For the molecule B22, the binding affinity ratio (IC50 of the standard peptide / IC50 of the test peptide) was found to be 0.0001.

The same test, now with this note: remark: other sources report otherwise.
For the molecule B23, the relative binding ratio (IC50 of standard peptide / IC50 of test peptide) turned out to be 0.0001.
For B24, the relative binding ratio (IC50 of standard peptide / IC50 of test peptide) amounted to 0.0012.
With B25, the relative binding ratio (IC50 of standard peptide / IC50 of test peptide) amounted to 0.0035.
Take B26: the binding affinity ratio (IC50 of the standard peptide / IC50 of the test peptide) came out at 0.0001.

The target in the next test is HLA-A*0301 (human).
Details: not given
B27: the binding affinity ratio (IC50 of standard peptide / IC50 of test peptide) turned out to be 0.0043.
Regarding B28, the binding affinity ratio (IC50 of standard peptide / IC50 of test peptide) (ratio to standard peptide) worked out at 0.0011.
On to B29, for which the binding affinity ratio (IC50 of standard peptide / IC50 of test peptide) was determined as 0.087.
On to B30, for which the binding affinity ratio (IC50 of standard peptide / IC50 of test peptide) (ratio to standard peptide) was 0.0011.
With B31, the binding affinity ratio (IC50 of standard peptide / IC50 of test peptide) (ratio to standard peptide) stood at 0.0005.
As for B32, the binding affinity ratio (IC50 of standard peptide / IC50 of test peptide) was 0.07.
Turning to B33, the binding affinity ratio (IC50 of standard peptide / IC50 of test peptide) came to 0.001.

The target in another test is HLA-A*1101 (human).
Details: not given
With B27, the binding affinity ratio (IC50 of standard peptide / IC50 of test peptide) (ratio to standard peptide) was 0.0033.
Consider B34, for which the binding affinity ratio (IC50 of standard peptide / IC50 of test peptide) (ratio to standard peptide) amounted to 0.0002.
For the molecule B35, the binding affinity ratio (IC50 of standard peptide / IC50 of test peptide) came out at 0.0012.
As to B36, the binding affinity ratio (IC50 of standard peptide / IC50 of test peptide) stood at 0.12.
As for B37, the binding affinity ratio (IC50 of standard peptide / IC50 of test peptide) worked out at 0.0014.
For the molecule B38, the binding affinity ratio (IC50 of standard peptide / IC50 of test peptide) is 0.0051.
Turning to B39, the binding affinity ratio (IC50 of standard peptide / IC50 of test peptide) (ratio to standard peptide) came out at 0.019.
For the molecule B40, the binding affinity ratio (IC50 of standard peptide / IC50 of test peptide) (ratio to standard peptide) was determined as 0.18.
In the case of B41, the binding affinity ratio (IC50 of standard peptide / IC50 of test peptide) came out at 0.0012.
As to B42, the binding affinity ratio (IC50 of standard peptide / IC50 of test peptide) (ratio to standard peptide) was 0.0009.
On to B28, for which the relative binding ratio (IC50 of standard peptide / IC50 of test peptide) was found to be 0.0002.
Take B29: the binding affinity ratio (IC50 of standard peptide / IC50 of test peptide) (ratio to standard peptide) was found to be 0.098.
As to B43, the relative binding ratio (IC50 of standard peptide / IC50 of test peptide) was found to be 0.29.
B44: the binding affinity ratio (IC50 of standard peptide / IC50 of test peptide) (ratio to standard peptide) amounted to 0.07.
Turning to B30, the relative binding ratio (IC50 of standard peptide / IC50 of test peptide) worked out at 0.018.
Consider B31, for which the relative binding ratio (IC50 of standard peptide / IC50 of test peptide) turned out to be 0.0002.
For B45, the binding affinity ratio (IC50 of standard peptide / IC50 of test peptide) amounted to 0.0023.
B32: the binding affinity ratio (IC50 of standard peptide / IC50 of test peptide) (ratio to standard peptide) was 1.8.
As to B46, the binding affinity ratio (IC50 of standard peptide / IC50 of test peptide) (ratio to standard peptide) worked out at 0.0001.
In the case of B47, the relative binding ratio (IC50 of standard peptide / IC50 of test peptide) came out at 0.037.
As to B48, the relative binding ratio (IC50 of standard peptide / IC50 of test peptide) was determined as 0.011.
Turning to B49, the binding affinity ratio (IC50 of standard peptide / IC50 of test peptide) was determined as 0.37.
Regarding B50, the relative binding ratio (IC50 of standard peptide / IC50 of test peptide) was 8.8.
B33: the binding affinity ratio (IC50 of standard peptide / IC50 of test peptide) (ratio to standard peptide) came out at 0.0086.
Turning to B51, the binding affinity ratio (IC50 of standard peptide / IC50 of test peptide) was 0.0001.
As for B52, the binding affinity ratio (IC50 of standard peptide / IC50 of test peptide) was found to be 0.018.
As to B53, the binding affinity ratio (IC50 of standard peptide / IC50 of test peptide) was 0.0021.
With B54, the binding affinity ratio (IC50 of standard peptide / IC50 of test peptide) was determined as 0.0002.
On to B55, for which the relative binding ratio (IC50 of standard peptide / IC50 of test peptide) was found to be 0.14.

Staying with this test, now noted: remark: other sources report otherwise.
As to B56, the binding affinity ratio (IC50 of standard peptide / IC50 of test peptide) (ratio to standard peptide) was 0.0002.
